Assay results published in paper PMC3497011.

Columns and labels:
[1] = molecular target: EGFR-GGS, chimeric receptor in which the JM domain is replaced by a (GGS)10 sequence; assay: flow cytometry on cells
[2] = molecular target: EGFR-GGS tagged at the C-terminus with a fluorescent protein (EGFR-GGS-YFP and EGFR-GGS-mCherry, co-expressed); assay: FRET or BRET
[3] = molecular target: EGFR-GGS, chimeric receptor in which the JM domain is replaced by a (GGS)10 sequence; assay: cross-linking

Alexa Fluor 488-labeled EGF (ligand)
ratio of EGFR-GGS-bound ligand to EGFR-bound ligand [1]: 1

EGFR-GGS tagged at the C-terminus with a fluorescent protein (EGFR-GGS-YFP and EGFR-GGS-mCherry, co-expressed) (receptor)
FRET efficiency [2]: 0.25

EGFR-GGS, chimeric receptor in which the JM domain is replaced by a (GGS)10 sequence
cross-linked fraction (no ligand) [3]: 0.42 | cross-linked fraction (with EGF) [3]: 0.64 | stoichiometry N [3]: 2
